Measurements taken from patent US6461815.

Tests used:
[1] = system: 30S ribosomal subunit (mRNA-programmed, activated; ribonucleoprotein); assay: filter; details: CMN buffer 20 mM MgCl2, pH 7.2
[2] = system: 30S ribosomal subunit (mRNA-programmed, activated; ribonucleoprotein); assay: FP; details: mnm5s2U34 and other native modifications; nitrocellulose filter binding (method is filter); poly(A)-programmed; CMN buffer 20 mM MgCl2, 100 mM NH4Cl, pH 7.2, 37 C then ice

yeast ASLPhe(GAA), unmodified anticodon stem-loop
Kd ([1]; poly(U)-programmed): 136 nM

UCAGACUUUUAAUCUGA [ASLLys3(SUU), s2U34 anticodon stem-loop]
Kd ([1]; s2U at tRNA position 34, poly(A)-programmed, also bound poly(AG)-programmed 30S): 176 nM

yeast tRNAPhe(GmAA), native
Kd ([1]; Gm34 and other native modifications, poly(U)-programmed): 103 nM

E. coli tRNALys(SUU), native fully modified
Kd [2]: 70 nM
